Measured values from patent EP1674575A2 (LA JOLLA INSTITUTE FOR ALLERGY AND IMMUNOLOGY, dated 2006).

B2: mouse LTβR:Fc (amino acid residues 1 to Met221 of the extracellular domain of mouse LTβR) (Fc fusion, UniProt P50284 31-221, looked up)
chain: QLVPPYRIENQTCWDQDKEYYEPMHDVCCSRCPPGEFVFAVCSRSQDTVCKTCPHNSYNEHWNHLSTCQLCRPCDIVLGFEEVAPCTSDRKAECRCQPGMSCVYLDNECVHCEEERLVLCQPGTEAEVTDEIMDTDVNCVPCKPGHFQNTSSPRARCQPHTRCEIQGLVEAAPGTSYSDTICKNPPEPGAM
notes: range 1-221; also called mLTβR:Fc; murine LTβR:Fc; not shown: Fc part
B5: LIGHTt66-FLAG mutant Y173F (ligand, human, UniProt O43557 67-240, looked up, not shown: small tags and cut ends)
chain: EMVTRLPDGPAGSWEQLIQERRSHEVNPAAHLTGANSSLTGSGGPLLWETQLGLAFLRGLSYHDGALVVTKAGYYYIYSKVQLGGVGCPLGLASTITHGLYKRTPRFPEELELLVSQQSPCGRATSSSRVWWDSSFLGGVVHLEAGEKVVVRVLDERLVRLRDGTRSYFGAFMV
notes: range 67-240; Homotrimer, from transiently transfected 293T cells
B7: LIGHTt66-FLAG mutant L120Q (ligand, human, UniProt O43557 67-240, looked up, not shown: small tags and cut ends)
chain: EMVTRLPDGPAGSWEQLIQERRSHEVNPAAHLTGANSSLTGSGGPLLWETQLGQAFLRGLSYHDGALVVTKAGYYYIYSKVQLGGVGCPLGLASTITHGLYKRTPRYPEELELLVSQQSPCGRATSSSRVWWDSSFLGGVVHLEAGEKVVVRVLDERLVRLRDGTRSYFGAFMV
notes: as for B5
B8: HVEM:Fc (extracellular region of HVEM, 1 to K184, fused to the Fc region of human IgG1) (Fc fusion, UniProt Q92956 39-184, looked up)
chain: LPSCKEDEYPVGSECCPKCSPGYRVKEACGELTGTVCEPCPPGTYIAHLNGLSKCLQCQMCDPAMGLRASRNCSRTENAVCGCSPGHFCIVQDGDHCAACRAYATSSPGQRVQKGGTESQDTLCQNCPPGTFSPNGTLEECQHQTK
notes: range 1-184; Bivalent chimeric protein made in baculovirus; also called huHVEM:Fc; hu HVEM:Fc; not shown: Fc region of human IgG1
B9: LIGHTt66-FLAG mutant Q117T (ligand, human, UniProt O43557 67-240, looked up, not shown: small tags and cut ends)
chain: EMVTRLPDGPAGSWEQLIQERRSHEVNPAAHLTGANSSLTGSGGPLLWETTLGLAFLRGLSYHDGALVVTKAGYYYIYSKVQLGGVGCPLGLASTITHGLYKRTPRYPEELELLVSQQSPCGRATSSSRVWWDSSFLGGVVHLEAGEKVVVRVLDERLVRLRDGTRSYFGAFMV
notes: as for B5

What was measured:
gD-1 (Δ290-299t) = molecular target: T1, gD-1 (Δ290-299t) (herpes simplex virus type 1, UniProt Q69091 26-331); experiment: binding inhibition, flow cytometry
T1 construct: also called gD-1 (Δ1290 - 299t)

[1] = molecular target: T2, p30 (LIGHT), the 30 kDa cell surface HVEM ligand of activated II-23.D7 cells and human T cells (human, UniProt O43557 1-240); experiment: precipitation from detergent extracts of activated II-23.D7 cells; competition by flow cytometry
T2 construct: whole, on cells; Endogenous protein, tested on the cell surface in flow cytometry and from detergent extracts in precipitations; also called 30 kDa protein

[2] = molecular target: T3, LTα1β2 complex (LTβ 33 kDa and LTα 23-25 kDa) from detergent extracts of PMA activated II-23.D7 cells (human, UniProt P01374 35-205; Q06643 1-244); experiment: precipitation with murine LTβR:Fc, 2D electrophoresis (Figure 4A)
T3 construct: Endogenous membrane complex, precipitated from detergent extracts; also called LTβ and LTα complex
T3 sequence (looked up) 1: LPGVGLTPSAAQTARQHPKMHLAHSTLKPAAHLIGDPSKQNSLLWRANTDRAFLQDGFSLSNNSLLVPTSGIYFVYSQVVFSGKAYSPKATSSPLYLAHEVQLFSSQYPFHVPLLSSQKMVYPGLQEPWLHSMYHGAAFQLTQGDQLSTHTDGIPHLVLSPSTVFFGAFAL
T3 sequence (looked up) 2: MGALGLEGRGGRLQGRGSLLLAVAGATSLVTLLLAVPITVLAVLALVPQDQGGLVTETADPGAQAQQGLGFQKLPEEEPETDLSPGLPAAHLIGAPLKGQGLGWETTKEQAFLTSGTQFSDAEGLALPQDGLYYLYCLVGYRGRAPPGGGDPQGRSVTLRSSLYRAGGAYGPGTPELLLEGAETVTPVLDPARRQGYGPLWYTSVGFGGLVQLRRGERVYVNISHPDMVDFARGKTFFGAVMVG

[3] = molecular target: LTβR (lymphotoxin β receptor) expressed by cells (human, UniProt P36941 31-435); experiment: cell-based or functional assay
[4] = molecular target: T2, p30 (LIGHT), the 30 kDa cell surface …; experiment: competition for HVEM:Fc binding to activated II-23.D7 cells, flow cytometry
[5] = molecular target: B8; experiment: SPR (BIAcore)
[6] = molecular target: B2; experiment: ELISA, receptor:Fc capture, anti-FLAG detection
human LTβR:Fc = molecular target: T4, human LTβR:Fc (human, UniProt P36941 31-227, limits assumed); experiment: SPR (BIAcore), receptor:Fc amine-coupled, LIGHT mutant as analyte 100-500 nM
T4 construct: also called huLTβR:Fc; hu LTβR:Fc; not shown: Fc region of human IgG1

[7] = molecular target: B7; experiment: ELISA, receptor:Fc capture, anti-FLAG detection
[8] = molecular target: B5; experiment: ELISA, receptor:Fc capture, anti-FLAG detection
[9] = molecular target: B5; experiment: SPR (BIAcore)
LTα homotrimer = molecular target: T5, LTα homotrimer (UniProt P01374 35-205); experiment: precipitation of 35S-labeled secreted proteins, SDS-PAGE
T5 construct: also called recombinant LTα; secreted LTα
T5 sequence (looked up): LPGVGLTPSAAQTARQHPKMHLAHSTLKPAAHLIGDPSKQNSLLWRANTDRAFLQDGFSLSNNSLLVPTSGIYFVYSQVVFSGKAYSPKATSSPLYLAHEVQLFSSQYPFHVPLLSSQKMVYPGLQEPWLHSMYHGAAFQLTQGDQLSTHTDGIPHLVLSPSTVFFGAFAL

[10] = molecular target: T2, p30 (LIGHT), the 30 kDa cell surface …; experiment: flow cytometry, saturation binding to activated II-23.D7 cells
TNF = molecular target: T6, TNF (UniProt P01375 77-233); experiment: precipitation of 35S-labeled secreted proteins of II-23.D7 cells, SDS-PAGE
T6 construct: also called TNF (17 kDa)

LTαTyr108Phe = molecular target: T7, LTαTyr108Phe (UniProt P01374 35-205); experiment: competition for HVEM:Fc binding to II-23.D7 cells, flow cytometry (Figure 3)
T7 construct: also called LTαY108F; Y108F
T7 sequence (looked up): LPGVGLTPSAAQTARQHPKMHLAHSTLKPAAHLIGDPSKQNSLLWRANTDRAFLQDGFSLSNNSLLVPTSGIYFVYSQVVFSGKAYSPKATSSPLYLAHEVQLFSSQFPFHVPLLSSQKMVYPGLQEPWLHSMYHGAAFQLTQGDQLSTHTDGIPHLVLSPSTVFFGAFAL

[11] = molecular target: B9; experiment: SPR (BIAcore), receptor:Fc amine-coupled, LIGHT mutant as analyte 100-500 nM
[12] = molecular target: B5; experiment: as above

T4 sequence (P36941 31-227 limits assumed): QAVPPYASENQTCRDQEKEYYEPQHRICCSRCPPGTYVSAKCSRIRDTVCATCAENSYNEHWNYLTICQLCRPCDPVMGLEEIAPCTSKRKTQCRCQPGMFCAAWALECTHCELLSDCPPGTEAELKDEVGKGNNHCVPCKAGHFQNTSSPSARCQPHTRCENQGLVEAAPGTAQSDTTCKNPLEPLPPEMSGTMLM
T1 sequence (Q69091 26-314, tags or fused parts left off): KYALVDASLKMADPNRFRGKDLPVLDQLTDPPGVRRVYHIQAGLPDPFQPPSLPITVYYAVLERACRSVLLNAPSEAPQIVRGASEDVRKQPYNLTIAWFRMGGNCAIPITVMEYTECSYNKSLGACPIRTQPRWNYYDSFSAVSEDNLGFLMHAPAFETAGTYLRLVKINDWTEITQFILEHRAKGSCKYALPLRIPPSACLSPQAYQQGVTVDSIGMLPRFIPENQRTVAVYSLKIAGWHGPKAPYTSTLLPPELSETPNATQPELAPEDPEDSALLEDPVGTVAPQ
T6 sequence (P01375 77-233 limits assumed): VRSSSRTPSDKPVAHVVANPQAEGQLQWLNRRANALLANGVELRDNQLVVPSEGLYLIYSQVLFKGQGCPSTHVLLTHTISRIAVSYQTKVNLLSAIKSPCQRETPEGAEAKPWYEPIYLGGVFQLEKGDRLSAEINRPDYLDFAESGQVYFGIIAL

B1: TNFR60:Fc (Fc fusion, UniProt P19438 30-211, looked up)
chain: LVPHLGDREKRDSVCPQGKYIHPQNNSICCTKCHKGTYLYNDCPGPGQDTDCRECESGSFTASENHLRHCLSCSKCRKEMGQVEISSCTVDRDTVCGCRKNQYRHYWSENLFQCFNCSLCLNGTVHLSCQEKQNTVCTCHAGFFLRENECVSCSNCKKSLECTKLCLPQIENVKGTEDSGTT
notes: also called TNFR:Fc; soluble type I TNFR protein (TNFR:Fc); not shown: Fc region of human IgG1
gD-1 (Δ290-299t)
  binding result: no binding
[1]
  binding result: no binding

## B2
[2]
  binding result: binds

B3: recombinant soluble LTα1β2 (ligand)
chain 1: LPGVGLTPSAAQTARQHPKMHLAHSTLKPAAHLIGDPSKQNSLLWRANTDRAFLQDGFSLSNNSLLVPTSGIYFVYSQVVFSGKAYSPKATSSPLYLAHEVQLFSSQYPFHVPLLSSQKMVYPGLQEPWLHSMYHGAAFQLTQGDQLSTHTDGIPHLVLSPSTVFFGAFAL
chain 2: QDQGGLVTETADPGAQAQQGLGFQKLPEEEPETDLSPGLPAAHLIGAPLKGQGLGWETTKEQAFLTSGTQFSDAEGLALPQDGLYYLYCLVGYRGRAPPGGGDPQGRSVTLRSSLYRAGGAYGPGTPELLLEGAETVTPVLDPARRQGYGPLWYTSVGFGGLVQLRRGERVYVNISHPDMVDFARGKTFFGAVMVG
[3]
  fold decrease in relative anti-HCMV activity (against LTα and LIGHT): ~10 fold

B4: Fas:Fc (Fc fusion, UniProt P25445 26-173, looked up)
chain: QVTDINSKGLELRKTVTTVETQNLEGLHHDGQFCHKPCPPGERKARDCTVNGDEPDCVPCQEGKEYTDKAHFSSKCRRCRLCDEGHGLEVEINCTRTQNTKCRCKPNFFCNSTVCEHCDPCTKCEHGIIKECTLTSNTKCKEEGSRSN
notes: not shown: Fc region of human IgG1
[4]
  binding result: no binding

## B5
[5]
  fold lower affinity than LIGHT t66: > 40 fold
[3]
  fold induction of ICAM expression by NHDF cells (flow cytometry, 20 nM): 2.5 fold
[6]
  binding result: no binding
Human LTβR:Fc
  Kd: 31 nM
  koff: 0.0011 s⁻¹
  kon: 37000 M⁻¹ s⁻¹

B6: mouse HVEM:Fc (mouse HVEM Met1 to Ser205 fused to the Fc region of human IgG1) (Fc fusion, UniProt Q80WM9 39-205, looked up)
chain: QPSCRQEEFLVGDECCPMCNPGYHVKQVCSEHTGTVCAPCPPQTYTAHANGLSKCLPCGVCDPDMGLLTWQECSSWKDTVCRCIPGYFCENQDGSHCSTCLQHTTCPPGQRVEKRGTHDQDTVCADCLTGTFSLGGTQEECLPWTNCSAFQQEVRRGTNSTDTTCSS
notes: range 1-205; also called mHVEM:Fc; murine HVEM:Fc; not shown: Fc region of human IgG1 (printed IgC1) at the 3' end of the HVEM insert
[7]
  binding result: binds
[8]
  binding result: no binding

## B7
[6]
  binding result: binds

## B8
[9]
  Kd: 180 nM
LTα homotrimer
  binding result: binds
[10]
  EC50: ~20 nM
TNF
  binding result: no binding
LTαTyr108Phe
  binding result: no binding
[11]
  Kd: 0.3 nM
  kon: 20000 M⁻¹ s⁻¹
[12]
  Kd: 173 nM
  koff: 0.0033 s⁻¹
  kon: 19000 M⁻¹ s⁻¹

## B9
Human LTβR:Fc
  Kd: 1.5 nM
  koff: 4.5e-05 s⁻¹
